Here are results for 18 sequences from a protein production outcome set (Wang et al. 2014).

The nature of the data set: label from the status in PepcDB records.

Turning to “MSNARIGIDMSKIYAPKSIDLSSFQLPDEKLQTKYGLPHKVEFCKSCVISNQRPNSAVEYEHKKESKKHTIHFDDEGICDACRVAERKKSTINWEERDRQLRELCDRFRSKDGSYDCVVPGSGGKDSFYAAHILKYKYGMNPLTVTWAPHMYTPWGWRNFQSWIHAGFDNHLFTPNGRVHRLLTRLAVENLFHPFQPFMIGQKAYAPKMALLHKIKLVVYGENEAEYGNPIGDTESAKRDWKYFTADDKSKIFLGGTSVQELKSDFGLNDNDLDAYLPADPQQIEEQQVEVHYLGYYLKWHPQSCYYYSVEHGGFEASPERTPGTYSKYNSIDDKIDDFHYYTTLTKFGIGRATYDASQEIRSGDITVEEGVALVKRFDQEFPERFAEEIFKYLSINLKEFPIASQMFEQPIMDRAYFMALADTFRSPHLWKKDGEQWKLRHQVTNLEKTKAEYLDLETV”, the protein production entry was “not failed”.

As to “MSNEHQLLVGLLKKLKDDALILPTLPEVAMRVQEVVGRPDSSLKQVAEIIGQDAAISARIIKVANSALYSRGVPAENINSAVTRIGLTQIKSIATSVAMEQLFISTNEMVWEVMDEVWRTSIDVTAAACSLLQIYNKKHPGSGLNYDTLTLAGLVHNIGALPVLTEAEAHPEMFTTIEHLRSLVRKMQGPIGRAVLKSWDFAPEVMEVVERWADLPYLGDHVSYLDFIRAAAFYTGELRAGNELEQRLDVFVKRGLPVSPEDLGSDAFLDSYHSIKASYE”, the protein production result was “not failed”.

As to “MSNIFLSLEPKILWSHFYRLTQIPRPSGHEEAVRTYVADVAKRCGLEWLVDEAGNIIVRKPASAGMERRRGVILQAHLDMVPQKNAGTAHDFTKDPIDAVIDGEWVHARGTTLGADNGIGVAAALAVLESDDLRHGPLEALFTVNEEAGMTGALGLKPGVLRGDILLNLDSEDEGELFIGCAGGLDGTMRFDYSCEPLPPGYSGIEIRVSGLRGGHSGMDIDLGRGNANKIMNRLLQMGREHHGLLLASIDGGSLRNAIPRESVALVAVPSAQKVAFLDELHSLASAIGLELNGVDPELRVEAADAALPVGMIDDTVAQRLFDAVAACPNGVHRMSEAMAGLVETSNNLARVHSDGRAVSVECLLRSASVEGMRELADAVAGIAERAGTVAAFENGYPGWKPNPASPILKCMVKVYRDRFGKTPEIRAVHAGLECGIIGANNPQLDMISFGPTIRHPHSPDEKVECSSVLKFWELLVATLEEVPEPLEHHHHHH”, the protein production result was “failed”.

Regarding “MSNIITYLKNNSNLTFDELALNDVDILCLNEFGYISFEKLINTTEMKSVLVCELYHEYLQTMAKSYSFMFTSQRHDLCQLMMTSKRFKNLTLSYYRAEISLEFEKQFAAMVFTIPNINYHQVVFRGTDANLIGWKEDFKLTYMREISAHRSAIKYLNTILPYFDKVVLSGHSKGGNLALYAAMFTKPDLKAKIDLIWLIDSPGLQKTLLPTTEYKTTKQKCIRLLPEESIVGMMLYSDIEPLIISSNARGILQHDVTTWEIQEPAILKTGTGLSLKSICFEKTFQQWMAELKSQERKLFFDLLFDSFLSSGVSSLDDFNLASRAKMMKAFHSFRELDDDKKRLFNKSLKLLVTIFWGAYHDNSRETK”, the protein production result is “failed”.

With “MSNLPLISVVIPTYGREEILRDSIVDVLNQDYPKYEVLVVDQSPKHKPEIETYLEEVAAAGKVKWFRLDWASLPGARNYAIRRASGEIILFIDDDVKLKPGFLAAHAKNYVQNPDVGSVAGRVFDRMKLGDSGGNLEIEYLPPEAMDPGVAWYHIDLVHTIKPQQVLTARGCNMSFRREIFTKHGLRFDERFRGSAVREESDFCLRLRQTGYKIWYDPEADLIHLGEETGGCHDISMRSLKYQFTFYHNHFLLGLKNLNFSQALRLYARLFDCHVLGRPPCHKSGSPIKIITRGIFYILGFFRALGSVIQSNWHDGQIYSRLDQESIIKSQESMVNS”, the protein production result is listed as “failed”.

As to “MSNNMQTVRESYEAFHRRDLPGVLAALAPDVRWTHPDGMSPYGLGGTKHGHDEVIAFIRHVPTHIAEMRLAPDEFIESGERIVVLGTRRVTAVNGRSATLKFVHVWRFENGRAVTFEDHFDTAEMIRLITA”, the protein production result is listed as “not failed”.

In the case of “MSNPLGELVKALEKLSFKPSDVRIYSLLLERGGMRVSEIARELDLSARFVRDRLKVLLKRGFVRREIVEKGWVGYIYSAEKPEKVLKEFKSSILGEIERIEKMFTD”, the protein production entry was “not failed”.

Turning to “MSNPQPEKVRVVVGDDHPLFREGVVRALSLSGSVNVVGEADDGAAALELIKAHLPDVALLDYRMPGMDGAQVAAAVRSYELPTRVLLISAHDEPAIVYQALQQGAAGFLLKDSTRTEIVKAVLDCAKGRDVVAPSLVGGLAGEIRQRAAPVAPVLSAREREVLNRIACGQSIPAIAAELYVAPSTVKTHVQRLYEKLGVSDRAAAVAEAMRQRLLD”, the protein production entry was “not failed”.

“MSNTTRQAGSQGSLDAFFKITQRGSNVRQEVLAGLTTFLAMVYSVIVVPSMLGKAGFPPTAVFVATCLVAGLGSLLMGLWANLPMAIGCAISLTAFTAFSLVLGQQISIPVALGAIFLMGVLFTIISVTGIRSWILRNLPLGVAHGTGIGIGLFLLIIAANGVGLVVKNPIDGLPVALGNFTSFPVIMSLLGLAATIGLEKRRVPGGILLVIVVISILGLIFDPNVKYAGFFALPSLTAADGSSLIFSLDIMGALQPLVLPSVLALVMTAVFDATGTIRAVAGQANLLDKDGQIINGGKALTADSVSSIFCSLVGTSPAAVYIESAAGTAAGGKTGLTATVVGVLFLLLLFVSPLAYLVPGYATAPALMYVGLLMLGNVSKLNFDDFVDAMSGLVCAVFIVLTCNIVTGIMLGFGALVLGRICSGEWRKLNIGTVIIAVALVAFYAGGWAL”: the protein production entry was “failed”.

On to “MSNVRVLATDLAFPEGPVVMPDGSVVLVEIRAQQLTRVWPDGRKEVVAKVPGGPNGAALGPDGKMYICNNGGFGWFPSRGTMMPGAPAPHEYIGGSIQRVDLQSGEVETLFDKCGEHPLKGPNDLVFDKHGGLWFTDLGKRRARDMDVGAAYYIKPGMTEITEQVFGTLPLNGIGLSPDEATMYAAETPTGRLWAFDLSGPGEVKPRDVIYRGEKGKPICGLGGYQMFDSLAVEASGNVCVATLVSGCISVIAPDGTLVEQVPTGDRVTTNIAFGGPDLKTAYITLSGKGELIAMDWSRPGLPLNFLNK”, for which the protein production result is listed as “failed”.

With “MSNYEKVYIGTYTNGESRGIYSFNIISDSRKTTAPILSCEIENPTYLTFNMNNKTAYSVIKSGNLGGAASFYVDDRNNHLELLNCKFGYENPPERFSGKQPCYVSLDKTNSYLFSVNYHTSRVDVFPIRNDGSIDTVSSFVIHEGFGPNKERQETSHVHCAVTTPLNDFLCVVDLGTDKIVLYRFDDGILCRFNEFKLKPGCGPRHIIFHPNGKIAYIATELSSEVIVLKYSPLDGSFEELQYVSCLPTDYTGKNGSAAIHISRNSNYLYVSNRGHNSISCFHVDNSTGLLTLNSNTSTYGLSPRDFDLSSSGNLLIAANQDSSNLTIFSVDQVSGNLSKITSDIYVPNPVCVKFYHDKLEHHHHHH”, the protein production result is “failed”.

Regarding “MSPEAKEAQDSRRNEMPEKKRAVLRKAIKLEWATIAWVLFSIVLVGVVAGQSQAMRSAWIEDMLSLVPPIAFLLASRISKAVATRKHPYGKHRSIAIGHQAAALALLIMGSLLIYEAVSALIKGERPPIGLAILFGHDVWSGWLMIGVMISVSIPMVIVGRVKINLAKDLHDKLLYADADMAKADWGTAVASTVGVLGIGLGFWWADAVAALVISASILRDGVINMKAAISDLGDGRAMTYDNSAPHPLNDDVEKAALEMHWVKHARARIRDQGRCFHTELFVEPVEGYTPAPEEITSLVKRIQNLDWKLQDVVASVVEKIDRFQAPS”, the protein production entry was “failed”.

Turning to “MSPFDTPRRLVAEALGTALLLAVVVGSGIMGERLSDGNIAIALLGNTLATGAALVVLIWVFGPISGAHFNPAVTLVAALRRELPLTLALAYPLAQILGGIAGVWTAHAMFGEPILQVSTKLRSGGDQAFAEVVATFGLLATILGVSRFRPESTPMAVGLYITAAYWFTASTSFANPAVTVARSLSDSFAGIAPASAPAFILAQLVGALSAAALFGWLLKTDTSR”, the protein production result is listed as “failed”.

On to “MSPFTGSAAPTPEWRHLRVEITDGVATVTLARPDKLNALTFEAYADLRDLLAELSRRRAVRALVLAGEGRGFCSGGDVDEIIGATLSMDTARLLDFNRMTGQVVRAVRECPFPVIAALHGVAAGAGAVLALAADFRVADPSTRFAFLFTRVGLSGGDMGAAYLLPRVVGLGHATRLLMLGDTVRAPEAERIGLISELTEEGRADEAARTLARRLADGPALAHAQTKALLTAELDMPLAAAVELDASTQALLMTGEDYAEFHAAFTEKRPPKWQGR”, for which the protein production result is listed as “not failed”.

With “MSPPPAPNPIRDSLIARADALREGGAPAEARDLYRLVLDRHPGHGPALAGLGRILLGLGQPTAALESLGAAVAADPTRLDWLADLAVALAGARRPAEALSAAEGLPATAGALGFRADRLEELGRRDQAIALLDDALRRHPDEAELHRRQGVLLRRAGRAAQAIAPWRALVALRPGDAAAWSSLGAGLGESGLDEEAEKALRRAVALAADEPDWTYNLAHFLIERDRLEDALPLLDAAVARAPERAHYHTNLGVCRLGLGDIKGAIAAHRQALALDPDEPEARYDLAWALLLAGAWEEGWAAHEARWRMGRFTGRRAAGPAPTDWPMPLWDGQPLGPGRTLLLHAEQGFGDSLMMSRLIIPALARAGDAQGIIECPPSLVGLLAQSLGPALGPAVRVVAQAESPPAADAHLPLMSLPHRLGVDSETIPGPDRWLRAEPAPRPPSSPPRVGLVWAGDPGNRMDRLRSCPATALRPLFDRVKDAGLDIAWTGLQLGPPAADLPDLPAALAPGGDFAATARVVAALDLVIGVDTAVIHLAGGLGVETWVMLAYVPDYRWMMDRDDSPWYPSARLFRQSRRGDWRGVIAQVAAALTKRFG”, the protein production entry is recorded as “failed”.

On to “MSPVVIAVVGVVVLLVLLALVVVSRYKVAGPSEAFIVTGRRGKRSTDPETGRVFTDNSGQKVVVGGGVFVVPFVQQRFTLDLSSRHIPVAVRGAVTLRGVKANLEGVAIVKVGGTEDAIRAAAQRFLMQQDGIVGFTQEVLSGALRAIVGRMSVEDVIRDRAAFAGQVAEEAEASLSGQGLVLDAFQIQDITTEGSYLEDLGRPEAARAKQEADIAEAVARRAAEQARLKAEEEIAVAQRTLYLKQAEIKAETDQAEARANASGPLAEAARQQDILAEQEKVAERQAALKDRQLDTEVRKPADAQRYAAEQEAEARRVARVKQAEAERAAGIAAAQAEAERARLTGEGEKQRRSALADAVRLEGDAEAAAIGAKGAAEAEAMEKKADAFDRYGDAAVLQMLVEVLPQVVAKASEPLAAVDKMTVISTDGASRLTRTVADNVAQGMELLGSTTGVDLTSLLKGITAKEGITAKGEAGRATTENGKVEITDLEHHHHHH”, for which the protein production entry is listed as “not failed”.

Consider “MSQAISLNQSTWASKLKAMGPGILMATAAVGGSHIVSSTQAGGSYGWSLLLLVILANVFKYPFFRFGAEYTADTGKTLVEGYAEKGKLYLWIFFILNVFSAMVNTAGVAILCSAIIASAFPMIGLSITQWSLILVAIIWAMLLFGGYKLLDGMVKWIMSALTIATVLAVIIAAVKHPEYSSDFVEKTPWQMAALPFIVSLLGWMPAPIEISAINSLWSAEKRKTVNFNTEDALFDFNTGYIGTAILAVFFVALGALIQYPTGQAVEAASAKYISQFVGMYASVLGEWSRYLITFIAFLCIFGTVITVIDGYSRVNQESLRLLISQKEDNRKSLNIWMTITAIIGIVIIKFFAGQVSTMLRFAMIGSFLTTPFFALLNYALVTRENKNLPSWLKHLAIAGLIFLFGFAIFFIYALAIGKAG”, for which the protein production entry is given as “failed”.

Take “MSQATAKVNREVQAFLQDLKGKTIDHVFFVACGGSSAIMYPSKYVFDRESKSINSDLYSANEFIQRNPVQLGEKSLVILCSHSGNTPETVKAAAFARGKGALTIAMTFKPESPLAQEAQYVAQYDWGDEALAINTNYGVLYQIVFGTLQVLENNTKFEQAIEGLDQLQAVYEKALKQEADNAKQFAKAHEKESIIYTMASGANYGVAYSYSICILMEMQWIHSHAIHAGEYFHGPFEIIDESVPFIILLGLDETRPLEERALTFSKKYGKKLTVLDAASYDFTAIDDSVKGYLAPLVLNRVLRSYADELAEERNHPLSHRRYMWKVEY”: the protein production result is given as “not failed”.
